Test: label from the status in PepcDB records

Sequence	protein production
MSREKIEANREKILNGPIVPTLLVLAYPIIINQLVHVLYNLTDTFWLGKLGRIELSAPGTAWPLVWFLMSIGSGFVVAGFAFVSQYIGAGDYEKANRYAGALYSLLLIFATGMSIFGIVLAPYFLRFMKVSETIFPYALTYTRIIFAGIPFSFTLFAFNFLLRAIGDTKTPVKINIGTIILNIILDPFFIFGWGPFPRLGVAGAAIATMLSNSVGSLIGGYLLFTGKVGIHLTLENLKPDLKFYSRIFRVGLPSSIGDSTSALGFVVLTRVIFTVGRIYGEAHGIKGYEDVAFPTYSITNRLTNFMFAFSDGISMAMGTMVGQNIGARKYERAKEIAEKAMLINFTILSIGTLLFAIFRVPIFKFFVNDPMVIAESKKVVMYFSASLPFFGIFSAVNQVFNSAGHTKKSMVLGIIRLWILRIPLSYWLGVAMKDTAGMWLGMGLSNVIGALIGLAWFLKGSWLRGVIEEHH	failed
MSRFRSLLQASVNATKKALTWNVEEWVPPAEKHIFKFHSKEDLKKWHLYSDSEYGGLSSASLEIPDKGDGSDCTGVFSGNLSVDLSEGSKWNISRSGFCGMRSKKFDGFIDLDGYDAIALRIRGDGRCYISTIYTENWVNSPGQSEDNSWQAFVFAPKDSWYTAKIPLARYLPTWRGNVIDVEMEMNPGRVLGMSLSVNAEGGAVGAKSGAGDFRVEIDWIKALRLP	failed
MSRKPRYSLALEVEPANPNEAYRHYMKKLSYETDIADLSIDIKKGYEGIIVVDVRDAEAYKECHIPTAISIPGNKINEDTTKRLSKEKVIITYCWGPACNGATKAAAKFAQLGFRVKELIGGIEYWRKENGEVEGTLGAKADLFWNMKKESKNKKSLDGSTQ	failed
MSRKYFVGGNFKCNGTKESLKTLIDSFKQVESSNSEVYVFPTSLHISLVKEFFGNDHPGVFKIGSQNISCTGNGAFTGEVSCEMLKDMDVDCSLVGHSERRQYYSETDQIVNNKVKKGLENGLKIVLCIGESLSERETGKTNDVIQKQLTEALKDVSDLSNLVIAYEPIWAIGTGVVATPGQAQEAHAFIREYVTRMYNPQVSSNLRIIYGGSVTPDNCNELIKCADIDGFLVGGASLKPTFAKIIESAQ	not failed
MSRLSAAAIELFEDLIRQQVEDKAIPSISYGLVDRDGLMGAGHIQRHDRGFVMGDDTCFRIGSITKTFTAVAVMQLAEKGLVDLDVDVSEYLPGFKPQNPFAGREGGPHGAQISLRKLMSHTAGLVREPKSGHYLDAARPPLADTVAELATSTLKQDPSLGQMHYSNAGIAVAGRVIETLTRKSYAEYVSENILKPLGMDQTSSGLAPGIAERLAPADMWTLEGDSPAPVFDLGGPPAGNIYSTTSDMARYVQCLLRGGFAPDGWQIVSPGSLREMWVPIGKRASGERVANTYGLCFGVGDVDGWTSVGHGGAVYGYSSQMILLPAAGVGVLIFSTLDFSNQIGARLGVEGLRIALAERRMGTLPVRPQGLPPVAADQLVALPGHYRHDTSGEVVEVKAKAGKLFLMGEGVPLQIRPVAGSDFTIDGRIYGHGAEYPHMNLSFPAPGALVWKGVNWSRIDALPAEAVPAEIAPHLGEYGPDFNITYLSYSHGELKCLIEYFCTHGCEPVEAGRFRMRGLLYEEEILEIDAIDDHGRRGIRVGPMFLERRHAPAA	failed
MSRQQNEEDTNSVLFDARNEYYIGNFMGSINFVLPEQGTAGPELLSYMYLSYLAIDSGRIVASDIKEGNSTPLQALRLVHEAFEQPSRTEELLEKLTDKVAGEEDETNIWHLATAIVYCHDGQFENALKILHGSTNLESMALSVQCLLRLQRVDLAKQLVAKMQEISDDATLTQLAQAWVALAQGTEQMQDAFHIYQEFCEKFKPTPALLNGQAVVHLGLERYEEADSVLRESLLKKHNDYDTLINLMVHAHLTGKPTEAITRNLEQLRQFYPKSDFVTDLDKKSAEFDRLCLQYDVEGGEKLLAV	failed
MSRRDQLFSAMTASYVIAVTLAIVIAAIFAPVIWNGVPSGGDDDPSVAVITLRGGTTDANVNAVKQDLREARTNESIEAVVLRVDSPGGPVDSSEEFYLAVNRTASEMPVVAYVEGTAASGGYYGITPADEIVVKPSSNVGSIGVIVQAPLSLIEQVEQQGETFVRSGPDKAQISKDSLREDIEVLQRSFVGTVMRHRGEQLTVSREEVANGGTYLGAQATENGFADRIGDTGLAIERAAALSDDIEGDQYDVVYQGSGGAEFNVIIVPAGAETVQGANNVTYLVHPDNSETTFREPVKYYAVWGIPAEDNNATVIRND	failed
MSRRKKAYQGRKIGSQLLATLESEARKKVGYLQVKTVAEGSNKDYDRTNDFYRGLGFKKLEIFPQLWNPQNPCQILIKKLE	failed
MSRRTTLRRVGLLVLGVNLLLVLLKAGVWLTTGSFAVQSEAVNSAADTAYSLVIVAGLYLTTRPPDFEHPHGHERIEPFVSLFVAAGIFAAGGFVLWNAGTALLTGNISVTQGPAAVLVLAFSAVAKYALYRYCLRAGTDRNSPALIATAKDNRNDILTAGAALVGVGGAMAGYPIADPLAALVVAIGIIYTGIEVVQENVTYLVGGAPPEDLRREILRRALDHPKVSGAHDVIAHYVGPEIDVSLHIEVEGDLTLFEAHDIETAVIKSIEELPEVDDAFIHVDPKELGEWKDDEEVERLADLE	failed
MSRSLVFGTAGLALLLAAGGLLYSFGPDERRARAAPTPPDTTDTSGVYSQRAPSRNGIGKVYMGREISKVMGHRGANWLERPARAEKERPDLLVDSLPLGPSDTVADIGAGTGYLSFRVAPRVPQGNILAVDIQPEMLNMMRERIDERGVDNVTPIRGTVTDPQLPADSVDLAYMVDAYHEFSHPYEMMTALMEDLTPGGRVVLVEYPREDPSIPIKTLHKMTEAQAKKEMRAVGLEWVETKDMLPRQHFMVFRKPVE	failed
MSRSRHCPAVLIAAPASGQGKTTVTAALARLHRNLGRKVRVFKCGPDFLDPMILERASGAPVYQLDLWMIGAEESRRLLWEAAGEADLILIEGVMGLFDGTPSSADLARHFGVPVLAVIDGTAMAQTFGALALGLARYQADLPFAGVLANRVGSLRHAQLLEGSLTEGLRWYGGLSRERGIELPSRHLGLVQASELNDLDTRLDAAAEALGASCDAALPPPVSFAEPEPQACVASLAGVRIGVARDEAFAFIYGANLDLLRNLGAQLVFFSPLHDHELPAVDSLYLPGGYPELHHHALAANAPMCEAIRAHHAQGKPLLAECGGMLYLLDALTDVAGERAELLGLLPGEATMQKRLAALALQAVELPEGTLRGHTYHHSLTSTALEPIARGLSPNGGRGNEAVYRLGRLTASYVHFYFPSCPDAAAALLRP	failed
MSRSTLQPARISRVLPDSIAAEIGFEPGDAIISINGQQPRDLIDYQFLCSDEFLELEVLDAAGRSHQIEIEKDTDEGLGLEFETALFDGLIQCNNRCPFCFIDQQPPGKRESLYYKDDDYRLSFLYGSYLTLTNLSEAEWRRIAQLRLSPLYVSVHATEPDLRRRLLKNERAGLIGEQLHWFRQQQLQIHAQVVVCPDLNDGAQLQRTLMDLAEFHRGDPATVASVAVVPVGLTRFRPTEDELRPVQPADAAATIALVEALQTQFQTELGSRFAWLADEWYLIAGQPLPSASWYEQYPQLENGVGSIRAFISEFERQAATLPSQIEPARRLTWVVGNVVGQAFQPLQARLNAVQGLKVDLVGLASRYWGQTLTVTGLLTGQDLIEVLSDRDLGDGLLLPSLILLHGYRCFLDDLTVAEVEKALHTPIFVAEGITGLLTECLRSPLAATVQDH	failed
MSRSTRSDQNARIRQRLGQPESGWRQRWYTIIFEADTRPGRTFDIVLLVAIIASVAVVMLDSIQAIHARLGTVFTALEWLFTLLFTTEYIMRLSVVRRPLRYVFSFYGIIDFLSIIPTWASFFVPELAFLIDVRLLRLLRVFRILKLTVYFEEAEILMLALSNSRRKIFVFLGTVFIITVILGTIMYVVEGPTHGFTSIPVSMYWAIVTLTTTGFGDMVPKTPIGQFITSITILLGYGIIAFPTGIVGAELAASIIRRPLTTRSCEHCLTEGHEPDATFCKHCGTALPEYRTELATDRRGDDGSRSR	failed
MSRTILQPGQIEAAANIPPHLHQPSRDLFARRGERLLQLAEGHPMGDYLRLVAGLCRLQQALLDNPPALAPLDPERLRKSREHGMPPLAYDLLVREGAWLPWLDALLAGYPAPANAAVGAALEQLREAEEGQRKAWAIALLSGQFDLLPAALVPFLGAALQVAWSHWLLGLEEGAVVETESRTLCPACGSPPMAGMIRQGGKETGLRYLSCSLCACEWHYVRIKCSHCEESKHLAYLSLEHDGQPAEKAVLRAETCPSCQGYLKQFYLEFDRHADALADDLASLALDMRLAEDGYLRRSPNLLLAPGGE	not failed
MSRVAPRDSAAQAASAVAESVRYQGRKASRQGSEQRRQAILDAAMRLIVRDGVRAVRHRAVAAEAQVPLSATTYYFKDIDDLITDTFALFVERNAEALSAFWSSVEGDLQEMAAVLADDPGARGSLVERIVELAVQYVQVQLTERREHLLAEQAFRQEALLNPRLRELADAHQRILSLGAVHFFQVLGSGQPEQDAKVLTSIILQMEYQGLVDGVEQLAVDEMRAILRRYLNLVMGL	not failed
MSRVKNVVELLETKGVDALYLTKKTNVNYISGFPDEEAYAVICKDGNFLVTDSRYMELAEKVCKDFEIINWHNFDRSVAKAVKSVCDKVGIKKLGFERTNIVFDKYEELKNLIEKDNGELIPTENIVETLRYVKDKDEIKNTRKACEIADKALEELIPHIKAGVSEIELATKLEYFMKMNGAQNIGFETILISGAKTSLLHGKPSDKIIEKGDFVLIDYGAMYNGYISDTTRTFIVGGASEKQLEIYNLVKEAQNVGVENMKAGVHATIPDAEIRKVVKKYEDYYYQGIGHGVGRDVHEEPFIGNYGDKIIEEGCIITMEPGIYFPGWGGVRIEDTVLITKNGPERLTKFPKDLMILDK	failed
MSSARFDSSDRSAWYMGPVSRQEAQTRLQGQRHGMFLVRDSSTCPGDYVLSVSENSRVSHYIINSLPNRRFKIGDQEFDHLPALLEFYKIHYLDTTTLIEPAPRYPSPPMGSVSAPNLPTAEDNLEYVRTLYDFPGNDAEDLPFKKGEILVIIEKPEEQWWSARNKDGRVGMIPVPYVEKLVRSSPHGKHGNRNSNSYGIPEPAHAYAQPQTTTPLPAVSGSPGAAITPLPSTQNGPVFAKAIQKRVPCAYDKTALALEVGDIVKVTRMNINGQWEGEVNGRKGLFPFTHVKIFDPQNPDENE	not failed
MSSASGLRRGHPAGGEENMTETDAFYKREMFDPAEKYKMDHRRRGIALIFNHERFFWHLTLPERRGTCADRDNLTRRFSDLGFEVKCFNDLKAEELLLKIHEVSTVSHADADCFVCVFLSHGEGNHIYAYDAKIEIQTLTGLFKGDKCHSLVGKPKIFIIQACRGNQHDVPVIPLDVVDNQTEKLDTNITEVDAASVYTLPAGADFLMCYSVAEGYYSHRETVNGSWYIQDLCEMLGKYGSSLEFTELLTLVNRKVSQRRVDFCKDPSAIGKKQVPCFASMLTKKLHFFPKSNLEHHHHHH	failed
MSSDESSDGLEELQSLKALYGQQEQEKPAKIKRERYIPKASQAKELNYVEVPMEKVLFGDRQRLLTNLAKSVGQKLPNDDEDEQEENPGQAKPGDKRKAAWSDSDDEDLQVGDVKKATKHTGPLNHLRKDKSYKEYLTARFQRTLNQPKWAEKKVKNEDDEDVSSDEELLRTVGFIDRKARNSDLPQKTLNFKRVKDLNRATYAEGNATSIQFHPTSTAALVAGMNGLATIYAVDGQKNERLHNMRFKKFPLACSRIAPCGTRAFFGSVKPFYYSYDLLEAKESKLKLPGAMEFMHRFEVSPCGKFIVTAGKFGAIHLLTAKTNELLHSFKQEGKVKGFTWSSDSKRILVCGSTSNVSVLNLRQNLIEHIFMDDGCIHGESIQLSPNQRLLATGSQEGVVNIYDYESIFASKAPQPEKRFMNLRTAITDLQFNHSSELLAMCSSEAPNAFKLAHFPSATVYSNFPAQNEKVGFVTSMAFSPHSSFLAFATKGKQVPLFRLKYFKGY	failed

Reference: a protein production outcome set (Wang et al. 2014)
